Reference: the supplement of paper PMC10567573

B1: FAM98B (parent)
chain: QLDKNSEVYQEVQAMFDTLGIPKS

Variants of: B1
Assay: protein stability index of a GFP-peptide fusion (GPS, HEK-293T) (PSI 1-6); higher = more stable
Settings: c terminus: a fixed tail appended
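Also: lentivirally expressed fusions sorted by FACS into six bins by GFP to DsRed ratio, PSI derived from sequencing read proportions per bin multiplied by bin number.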

Protein stability index, by site and new letter:
G20: V 2.86 | C 2.63 | F 3.04 | E 3.77 | I 3.21 | N 3.97 | W 3 | T 3.15 | D 3.74 | R 2.44 | A 3.04 | P 3.01
N5: S 3.97 | K 3.88 | M 3.24 | R 3.55 | D 4.66 | V 3.99 | Q 4.22 | P 4.37 | G 3.98 | H 3.94 | I 2.88 | Y 2.83 | F 3.41 | L 2.69 | E 3.86 | W 2.91 | A 3.56 | C 3.37
L2: E 5.34 | M 3.23 | A 4.38 | K 4.27 | P 4.66 | S 4.63 | I 3.08 | C 4.07 | V 3.87 | G 4.76 | T 4.32 | N 4.36 | R 3.58
S6: N 3.29 | L 2.66 | F 2.63 | I 2.69 | K 3.23 | V 3.47 | G 3.56 | P 4 | Y 2.71 | T 3.53 | H 3.35 | R 2.88 | D 4.67
A14: D 3.82 | S 3.37 | H 3.14 | G 2.58 | V 2.77 | T 3.34 | Y 3.22 | W 2.63 | L 2.83 | K 3.03 | M 2.89 | P 3.81 | Q 3.61 | R 2.55 | N 4.67 | I 3.22 | E 3.79
E11: T 3.13 | M 2.36 | I 1.67 | F 2.07 | P 2.88 | Y 2.7 | N 2.64 | Q 2.3 | A 2.86 | D 2.86 | V 2.56 | C 2.48 | H 3.46 | L 2.28 | K 1.69
P22: N 3.38 | L 2.03 | H 2.87 | T 3.48 | W 2.98 | I 2.78 | V 3.16 | C 3.11 | D 4.05 | S 4.04 | M 3.37 | A 3.48 | R 4.78 | K 3.38 | F 2.12
K23: Q 3.41 | E 4.21 | H 3.33 | P 3.47 | S 3.24 | L 2.46 | V 3.4 | M 3.38 | R 3.38 | A 3.26 | I 2.15 | C 3.06 | G 3.17
V8: E 3.79 | H 3.12 | K 3.07 | Y 2.96 | S 3.35 | W 2.88 | A 3.85 | P 3.32 | D 3.62 | L 3.47 | Q 3.31 | I 2.73 | C 3.02
I21: S 3.34 | V 3.51 | H 3.4 | D 3.8 | M 3.27 | N 3.41 | E 4.21 | Q 3.64 | G 3.69 | L 4 | Y 3 | R 2.76 | C 3.53 | F 3.3
T18: D 3.87 | G 3.25 | H 3.07 | N 3.13 | R 3.33 | K 2.25 | E 3.57 | M 2.78 | F 3.52 | V 2.57 | Y 2.67
M15: F 3.5 | S 3.22 | I 3.24 | Q 3.56 | V 2.91 | D 3.68 | G 3.69 | H 3.08 | P 3.27 | E 4.28 | K 3.32 | R 3.34 | W 3.55 | N 3.1
E7: T 2.83 | C 2.62 | R 2.87 | G 2.97 | L 3.05 | A 3.44 | I 1.99 | Y 2.26 | M 3.01 | N 3.2 | Q 2.81 | V 2.58 | S 2.77 | F 2.39
D17: S 3.14 | H 2.43 | M 2.5 | E 3.42 | I 1.83 | Q 2.86 | Y 2.02 | T 3.12 | L 2.23 | N 3.73
Y9: M 3.66 | V 3.27 | T 4.39 | K 3.72 | C 3.58 | E 4.4 | N 3.52 | A 4.12 | S 3.78 | G 3.5 | R 3.12 | L 3.2 | H 3.55 | I 3.67
L19: I 3.06 | D 2.85 | Y 3.6 | Q 3.76 | R 3.7 | N 3.38 | F 2.85 | A 3.64 | P 3.17 | S 3.46 | W 2.45 | V 3.56 | H 3.71 | E 3.58
K4: M 2.85 | L 3.39 | W 3.04 | H 3.43 | Q 3.03 | F 2.93 | T 3.08 | V 2.2 | D 3.44 | A 3.04 | Y 3.39 | R 2.95
F16: Y 3.57 | C 3.38 | S 3.42 | V 3.94 | I 2.79 | Q 4.11 | L 3.12 | M 3.3 | E 4.36 | H 2.58 | G 3.78 | K 4.07
V12: A 3 | I 3.04 | D 4.19 | N 3.53 | S 2.77 | P 3.34 | Y 2.56 | L 3.1 | R 2.8 | M 3.29 | C 3.36 | H 3.42 | W 3.85 | K 3.22 | T 3.52
S24: N 3.56 | P 2.79 | R 2.5 | F 3 | Y 2.36 | E 3.47 | L 2.46 | I 2.67 | G 3.61 | H 2.99 | A 2.88 | M 2.69 | V 2.61 | T 2.48 | K 2.96
D3: F 2.73 | N 3.47 | Y 2.49 | H 3.43 | C 2.21 | G 3.73 | T 3.06 | W 2.08 | Q 2.75 | S 2.93 | A 3.46 | E 3.87 | M 2.16 | K 3.45 | R 3.21
Q1: V 2.7 | F 2.2 | I 3.23 | C 2.52 | L 2.55 | P 3.53 | G 3.31 | A 2.91 | R 3.39 | N 3.39 | M 2.79 | K 3.2 | T 3.18 | E 2.9 | S 2.96 | Y 2.62
Q13: M 2.73 | A 3.58 | V 3.15 | D 3.82 | R 2.59 | H 3.03 | W 2.24 | Y 2.36 | G 3.09 | E 3.34 | N 2.56 | L 3.29 | C 2.88 | S 3.24 | T 3.86 | F 2.53
Q10: K 2.53 | P 2.73 | H 2.75 | N 3.07 | L 2.18 | D 3.75 | F 2 | M 2.73 | W 2.3 | T 3.1 | E 3.57 | R 2.29 | I 1.39
